Results on 16 molecules are retold here after paper PMC9942873 (Immunity, 2023).

Sequences and labels used below:
B1: RUPA-29 (antibody, V domains shown)
VH: QVHLVESGGGVVQPGRSLRLSCAASGFTFRSYGMHWVRLAPGKGLEWVTAIWYDGSKKHFADSVKGRFTISRDNSKNTLYLQMSSLRVEDTAVYYCARDFAHGAFYPVDWGRGTLVTVSS
VL: SYELTQPPSVSVSPGQTARITCSGDALPKKHAYWYQQKSGQAPVLVIYDDSKRPSGIPERFSGSSSGTMATLSISGAQVEDEAAYYCYSSDTSANYWVFGGGTKLTVL
notes: human IgG1; source: recombinant human IgG1, 293T (Protein A purified) or GenScript
B2: RUPA-57 (antibody, V domains shown)
VH: QVQLVESGGGVVQPGRSLRLSCTASGFSFSDYGMHWVRQAPGKGLEWVAVISYHGRDKSYADSVKGRFTISRDNSKKTLYLQMNSLTAEDTALYYCAKSNDHYDNSGYFVYWGLGTKVTVSS
VL: SYELTQPPSVSVSPGQTATITCSGDALPKKFAFWYQQKSGQAPVLVIYEDTKRPSGIPERFSGSSSGTLATLTISGAQVEDEADYYCYSRDSSNTQRVFGGGTKVTVL
notes: as for B1
B3: RUPA-34 (antibody, V domains shown)
VH: EVQLVESGGGLIQPGGSLRLSCAASGFTVSSNYMSWVRQAPGKGLEWVSVIYSGGSGGSTYYADSVKGRFTISRDNLKNTLYLQMNNLRAEDAAVYYCVRDSRGWGYFDDWGQGTLVTVSS
VL: EVVLTQSPGTLSLSPGERATLSCRASQSIRTNYLAWYQQKPGQTPRLLIYGASSRATGIPDRFSGSGSGTDFTLTISRLEPEDFAVYFCQQYQNSPWTFGQGTKVEIK
notes: as for B1
B4: RUPA-43 (antibody, V domains shown)
VH: QVLLVQSGAEVKKPGASVKVSCKASGYTFLYHDISWVRQATGQGLEWMGWMNPNTGDTGYAQRFQGRVTMTRDMSISTAYLELGSLSSEDTAVYYCARGVGSYHGSGGWLDPWGQGTLVIVSS
VL: QSVLTQPPSVSETPGQRVTISCSGTSSNIGINTVNWYQQLPGTAPKLLIHNDNQRPSGVPDRFAGSKSGSSAALAISGLQSEDEADYYCGTWDDSLKRRVFGGGTKLTVL
notes: as for B1
B5: RUPA-53 (antibody, V domains shown)
VH: B4 VH
VL: not shown
notes: as for B1
B6: RUPA-44 (antibody, V domains shown)
VH: QLQLQESGPGLVKPSETLSLTCTVSGGSISRSPYYWGWIRQPPGKGLEWFGSIYNNGSTYYNPPLKSRLTISVDTSKNQFSLKLSSVTAADTAVYYCARHGGSTGMKVVVIAPPDYWGQGTLVTVSS
VL: DIQMTQSPATLSASVGDRVTITCRASQSISSWLAWYQQKPGEAPKLLIYKASSLQSGVPSRFSGSGSGTKFSLTISSLQPDDFATFYCQQYHSYPYTFGQGTKLEIK
notes: as for B1
B7: RUPA-49 (antibody, V domains shown)
VH: QVQLVQSGAEVKKPGASVKVSCKASGYTFLYHDIIWMRQATGQGPEWMGWINPNTGNTGLAQKFQGRVSLTRNMSSGTAYMELRSLRSEDRAIYFCARGVGTYHGSGGWFDPWGQGTLVAVSS
VL: QSVLTQPPSASETPGQRVTLSCSGSSSNIGSHTVNWYRQLPGTAPKLLIHSDDQRPSGVPDRFSGSKSGTSASLAISGLQSEDEADYYCATWDDSLKRGVFGGGTKLTVL
notes: as for B1
B8: RUPA-61 (antibody, V domains shown)
VH: QVQLVQSGAEVKKPGASVKVSCKASEDTFSSYYIHWVRQAPGQGLEWMGMMNPSGGGTRYTQKFQGRVTMTSDTSTSTVYMEVISLRSEDTAVYYCARVRKRDAYNNRNWGSVFGGMDVWGQGTTVTVSS
VL: QSALTQPPSASGSPGQSVSISCTGTSSDVGGHDYVSWYQHHPGKAPKLMIYEVSKRPSGVPDRFSGAKSGNTASLTVSGLQAEDEADYYCSSFGGSNNLVFGGGTKVTVV
notes: as for B1
B9: RUPA-54 (antibody, V domains shown)
VH: QVQLVESGGGVVQPGRSLRLSCTASGFTFRSYGIHWVRQAPGKGLQWVAFISYDGRNKYYADSVKGRFTISRDNSKNTLYLQMSGLRADDTAVYYCAKDSDNDCTATSCYTVSWGQGTLVTVSS
VL: SYELTQPPSVSVSPGQTARITCSGDALPKKYAYWYQQKSGQAPVLVIYEDKKRPSGIPERFSGSSSGTMATLTISGAQVEDEADYYCYSTDSRTDHGGIFGGGTKLTVL
notes: as for B1
B10: RUPA-41 (antibody, V domains shown)
VH: QVQLVQSGAELKKPGASVKVSCKASGYTFTSHDITWVRQAAGQGLEWMGWMNPNTGDKGYAQKFQGRVTLTRNMSTRTAYMELNSLTSEDTAVYYCARGVGTYHGAGGWFDPWGQGTLVTVSS
VL: QSVVTQPPSVSETPGQRVTISCSGSSSNIGSNIVSWYQQLPGTAPKLLIYSDTQRPSGVPDRFSASKSGTSASLAISGLHSEDEADYYCATWDDSLKRGVFGGGTKLTVL
notes: as for B1
B11: RUPA-70 (antibody, V domains shown)
VH: QVQLQESGPGLVKPSQTLSLTCTVSGGSISIGGYYWSWIRQHPGKGLEWIGYIYYSGTTYYNPSLKSRVIISIDTSKNQFSLRLKSVTAADTAVYYCARTGLVAAIRGSRRGQQGDYFDYWGQGTLVPVSS
VL: SYELTQPPSVSVSPGQTASLTCSGDKLGDKYASWYQQKPGQSPVLVIHQDKKRPSGIPERFSGSNSGNTATLTISGTQAMDEADYYCQAWDSNTGVFGGGTKLTVL
notes: as for B1
B12: RUPA-42 (antibody, V domains shown)
VH: QVQLQESGPGLVKPSQTLSLTCTVSGGSISSGGYYWSWIRQHPGKGLEWIGYIYYSGTTYYHPSLESRVTISVDTSKNQFSLKLNSVTAADTAIYYCARAGLVAAIRGSRRGQQGDYFDHWGQGTLVTVSS
VL: B11 VL with L20I, D25E, K30R, A32V, V44L, I47L, M80L, Y86F, N93S
notes: as for B1
B13: RUPA-25 (antibody, V domains shown)
VH: QVQLVQSGAEVKKPGASVKVSCTASGYNFLTHDISWVRQATGQGLEWMGWMNPNTGKKGYVQKFQGRVTMDRDMSKSTAYMELRSLTSEDTAVYYCVRGVGSYYGSGGWFDPWGQGTLVTVSS
VL: QPVLTQPPSASETPGQKVTISCSGSSSNIGSDTVSWYVQLPGTAPKLLIYNDNQRPSGVPDRFSGSKSGTSASLAISGLQSEDEADYYCATWDASLKRRVFGGGTTLTVL
notes: as for B1
B14: RUPA-50 (antibody, V domains shown)
VH: QVHLVESGGGVVQPGRSLRLSCAASGFTFRSYGMHWVRRVPGKGLEWVATISYDETFKDYPDSVKGRFTISRDNSKNTLFLQMNSLRPADTAVYYCAKDRAHSMHYFEYWGRGTLVTVSS
VL: SYELTQPPSVSVSPGQTARLTCSGDALPKKFAYWYQLKSGQAPVLVIYEDSKRPSGIPERFSGSSSGTTATLTISGAQVEDEADYYCYSRDGSGDQKNIFGGGTKLTVL
notes: as for B1
B15: RUPA-47 (antibody, V domains shown)
VH: QVQLVQSGAEVKKPGASVKLSCTASGYTFTNFGITWVRQAPGQGLEWMAWISVYSGDTDYAQRFQGRVTMTTDTSTRTAYMEMRSLSFDDTAVYYCVRGGRDSPILGGYWGQGTLVTVSS
VL: EIVLTQSPGTLSLSPGERVTLSCRASQSVRSMYLAWYQQKPGQAPRLLIHGASIRATGIPDRFSGSGSGTDFTLTISRLEREDFAVYYCHQYGSSPLTFGGGTKVESK
notes: as for B1
B16: RUPA-72 (antibody, V domains shown)
VH: EVQLVESGGGLVQPGGSLRLSCAASGFTFSYYWMHWVRQAPGKELVWVSRIKSDGSSGTTTDYADSVKGRFTISRDTAKNTLYLQMNSLRAEDTAVYYCARAGCSNGVCPPRYYYHGMDVWGQGTTVTVSS
VL: EIVLTQSPGTLSGSPGERATLSCRASQSIRSNYLAWYQQKPGQAPRLLIYGASSRATDIPARFSGSGSGTDFTLTISRLEPEDFAVYYCQHYGNSRVTFGQGTKVEIK
notes: as for B1

Substitutions are numbered along the chain they refer to.

Pfs48/45 D2-3, sequence (Q8I6T1 184-428): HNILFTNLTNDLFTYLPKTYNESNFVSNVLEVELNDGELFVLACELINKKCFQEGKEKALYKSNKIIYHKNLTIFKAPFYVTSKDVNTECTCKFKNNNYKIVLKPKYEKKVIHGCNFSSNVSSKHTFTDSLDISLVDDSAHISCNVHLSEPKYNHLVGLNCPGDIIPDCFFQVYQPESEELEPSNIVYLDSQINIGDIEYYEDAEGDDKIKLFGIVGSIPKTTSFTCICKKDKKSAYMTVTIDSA

In one experiment the target is recombinant full-length Pfs48/45 (Plasmodium falciparum 3D7, UniProt Q8I6T1). The experiment can be described thus: ELISA. As to conditions: both partners purified.
recombinant full-length Pfs48/45, sequence (Q8I6T1 28-428): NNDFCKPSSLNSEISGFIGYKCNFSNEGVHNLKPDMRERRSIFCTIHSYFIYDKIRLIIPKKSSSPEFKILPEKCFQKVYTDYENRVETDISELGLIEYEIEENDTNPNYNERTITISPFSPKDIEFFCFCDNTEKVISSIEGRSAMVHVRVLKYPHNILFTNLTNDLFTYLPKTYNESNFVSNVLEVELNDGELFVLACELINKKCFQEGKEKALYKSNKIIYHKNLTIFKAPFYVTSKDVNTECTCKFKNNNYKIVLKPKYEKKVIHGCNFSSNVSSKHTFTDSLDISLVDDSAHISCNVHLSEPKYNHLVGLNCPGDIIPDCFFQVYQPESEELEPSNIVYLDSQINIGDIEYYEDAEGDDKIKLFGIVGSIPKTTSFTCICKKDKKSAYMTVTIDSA
B1: the binding result is recorded as “binds”.
For the molecule B2, the binding result is recorded as “binds”.
For B3, the binding result is on record as “binds”.
The same measure, in the same setting: in the case of B4 it was “binds”; in that of B5, “binds”; in that of B6, “binds”.
Turning to B7, the binding result is given as “binds”.
B8: the binding result was “binds”.
Consider B9, for which the binding result is reported as “binds”.
Take B10: the binding result is “binds”.
As for B11, the binding result was “binds”.
For the molecule B12, the binding result is listed as “binds”.
In the case of B13, the binding result is given as “binds”.
With B14, the binding result was “binds”.
For B15, the binding result was “binds”.
Turning to B16, the binding result is recorded as “binds”.

The target of another experiment is Pfs48/45 D1-2 (Plasmodium falciparum 3D7, UniProt Q8I6T1). The experiment can be described thus: ELISA. As to conditions: both partners purified.
Pfs48/45 D1-2, sequence (Q8I6T1 28-289): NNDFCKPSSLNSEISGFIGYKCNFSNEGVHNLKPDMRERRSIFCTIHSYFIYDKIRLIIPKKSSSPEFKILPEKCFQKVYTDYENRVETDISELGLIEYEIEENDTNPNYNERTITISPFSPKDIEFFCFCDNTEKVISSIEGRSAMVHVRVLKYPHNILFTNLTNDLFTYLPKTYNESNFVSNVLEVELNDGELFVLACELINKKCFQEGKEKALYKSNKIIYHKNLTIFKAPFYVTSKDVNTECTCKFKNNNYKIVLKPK
On to B3, for which the binding result is “binds”.
As for B4, the binding result is reported as “binds”.
Same read-out and setting: under B5 stands “binds”; under B7, “binds”; under B10, “binds”.
On to B12, for which the binding result is reported as “no binding (tested: 10 ug/ml)”.
As to B13, the binding result is “binds”.

Another experiment addresses Pfs48/45 D2-3 (Plasmodium falciparum 3D7, UniProt Q8I6T1). The experiment can be described thus: ELISA. As to conditions: both partners purified. On the technique in general: In an ELISA, binding on a coated surface is turned into a signal by an enzyme label.
As for B1, the binding result is given as “binds”.
Take B2: the binding result is recorded as “binds”.
As to B3, the binding result is “binds”.
Regarding B4, the binding result was “binds”.
Same read-out and setting: in the case of B5 it was “binds”.
On to B6, for which the binding result is reported as “binds”.
On to B7, for which the binding result is on record as “binds”.
As to B8, the binding result is given as “binds”.
B9: the binding result is “binds”.
As for B10, the binding result was “binds”.
The same measure, in the same setting: in the case of B11 it was “binds”; in that of B12, “binds”; in that of B13, “binds”.
On to B14, for which the binding result is given as “binds”.
As for B15, the binding result was “binds”.
Turning to B16, the binding result is given as “binds”.

For the next experiment, the target named is Pfs48/45 D3 (Plasmodium falciparum 3D7, UniProt Q8I6T1). In words: ELISA. As to conditions: both partners purified.
Pfs48/45 D3, sequence (Q8I6T1 287-428): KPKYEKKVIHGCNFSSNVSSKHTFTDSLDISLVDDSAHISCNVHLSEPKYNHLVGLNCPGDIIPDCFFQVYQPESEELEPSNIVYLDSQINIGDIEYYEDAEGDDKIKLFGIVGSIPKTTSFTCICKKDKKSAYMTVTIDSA
As for B1, the binding result is reported as “binds”.
For the molecule B2, the binding result was “binds”.
On to B3, for which the binding result is recorded as “no binding (tested: 10 ug/ml)”.
On to B4, for which the binding result is “no binding (tested: 10 ug/ml)”.
Consider B6, for which the binding result is “binds”.
Consider B8, for which the binding result is on record as “binds”.
As for B9, the binding result was “binds”.
Consider B10, for which the binding result is on record as “no binding (tested: 10 ug/ml)”.
As for B11, the binding result is “binds”.
With B12, the binding result is “binds”.
Turning to B13, the binding result is “no binding (tested: 10 ug/ml)”.
The same measure, in the same setting: in the case of B14 it was “binds”; in that of B15, “binds”.
Same read-out and setting: in the case of B16 it was “binds”.
